Assay [1] has as its target T1, Shaker Kv1.1 channels (ShB-IR) (Drosophila melanogaster, UniProt P08510, DEL6-46).
T1 construct: expressed in transfected cells; host or cells: Xenopus oocytes injected with cRNA
In words: ShB-IR K+ currents in oocytes, two-electrode voltage clamp. The assay is classed as cell-based. As to conditions: 24 nM recombinant ChTx. Background: Two-electrode voltage clamp holds a large cell at a set potential and records current.
Protocol: For ShB-IR, holding potential was −90 mV. Leak subtraction used a P/4 protocol with a conditioning pulse to −120 mV. Voltage was stepped from −100 mV post-train to potentials ranging from −40 to 0 mV in 10 mV increments.
Adult female Xenopus were obtained from Xenopus One (Ann Arbor, Mich.). […] For experiments with ShB-IR, oocytes were injected with 0.06-1 ng cRNA. Leak currents were subtracted using a P/4 protocol; corrected traces are shown.
For these experiments, the ShB variant was used with inactivation-removed (ShB-IR).

Assay [2] concerns the target T1, Shaker Kv1.1 channels (ShB-IR). As to conditions: read-out: reported Ki for inhibition of Shaker channels; cited from earlier work.

T1 sequence (P08510 with tags, fused parts or gaps DEL6-46): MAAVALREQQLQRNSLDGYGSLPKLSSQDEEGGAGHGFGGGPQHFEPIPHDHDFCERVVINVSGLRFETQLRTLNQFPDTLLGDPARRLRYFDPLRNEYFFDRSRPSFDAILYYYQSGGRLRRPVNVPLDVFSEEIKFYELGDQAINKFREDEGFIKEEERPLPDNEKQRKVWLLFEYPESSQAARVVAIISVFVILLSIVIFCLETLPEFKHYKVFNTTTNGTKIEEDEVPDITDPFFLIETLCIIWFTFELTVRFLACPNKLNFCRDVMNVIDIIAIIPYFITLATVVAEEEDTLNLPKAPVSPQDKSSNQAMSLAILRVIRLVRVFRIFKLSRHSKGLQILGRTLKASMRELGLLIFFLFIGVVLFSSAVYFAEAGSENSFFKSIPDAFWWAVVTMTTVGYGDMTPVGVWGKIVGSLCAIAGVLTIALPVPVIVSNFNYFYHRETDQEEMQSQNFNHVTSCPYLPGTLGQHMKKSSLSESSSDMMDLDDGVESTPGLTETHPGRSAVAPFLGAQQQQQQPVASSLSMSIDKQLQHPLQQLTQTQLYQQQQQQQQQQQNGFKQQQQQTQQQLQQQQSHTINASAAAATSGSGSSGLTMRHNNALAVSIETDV

In general, Ki refers to a dissociation constant, usually derived from enzyme kinetics or from competition with a known ligand. charybdotoxin [ChTx]: the “inhibition of ShB-IR currents” value in assay [1] is 15%. The inhibition constant (Ki) in assay [2] was approximately 200 nM.
